Measurements as given in IntAct's records for PubMed 20863830.

B1: Phospholipid-transporting ATPase ABCA3 (Homo sapiens), Q99758 (parent)
chain: MAVLRQLALLLWKNYTLQKRKVLVTVLELFLPLLFSGILIWLRLKIQSENVPNATIYPGQSIQELPLFFTFPPPGDTWELAYIPSHSDAAKTVTETVRRALVINMRVRGFPSEKDFEDYIRYDNCSSSVLAAVVFEHPFNHSKEPLPLAVKYHLRFSYTRRNYMWTQTGSFFLKETEGWHTTSLFPLFPNPGPREPTSPDGGEPGYIREGFLAVQHAVDRAIMEYHADAATRQLFQRLTVTIKRFPYPPFIADPFLVAIQYQLPLLLLLSFTYTALTIARAVVQEKERRLKEYMRMMGLSSWLHWSAWFLLFFLFLLIAASFMTLLFCVKVKPNVAVLSRSDPSLVLAFLLCFAISTISFSFMVSTFFSKANMAAAFGGFLYFFTYIPYFFVAPRYNWMTLSQKLCSCLLSNVAMAMGAQLIGKFEAKGMGIQWRDLLSPVNVDDDFCFGQVLGMLLLDSVLYGLVTWYMEAVFPGQFGVPQPWYFFIMPSYWCGKPRAVAGKEEEDSDPEKALRNEYFEAEPEDLVAGIKIKHLSKVFRVGNKDRAAVRDLNLNLYEGQITVLLGHNGAGKTTTLSMLTGLFPPTSGRAYISGYEISQDMVQIRKSLGLCPQHDILFDNLTVAEHLYFYAQLKGLSRQKCPEEVKQMLHIIGLEDKWNSRSRFLSGGMRRKLSIGIALIAGSKVLILDEPTSGMDAISRRAIWDLLQRQKSDRTIVLTTHFMDEADLLGDRIAIMAKGELQCCGSSLFLKQKYGAGYHMTLVKEPHCNPEDISQLVHHHVPNATLESSAGAELSFILPRESTHRFEGLFAKLEKKQKELGIASFGASITTMEEVFLRVGKLVDSSMDIQAIQLPALQYQHERRASDWAVDSNLCGAMDPSDGIGALIEEERTAVKLNTGLALHCQQFWAMFLKKAAYSWREWKMVAAQVLVPLTCVTLALLAINYSSELFDDPMLRLTLGEYGRTVVPFSVPGTSQLGQQLSEHLKDALQAEGQEPREVLGDLEEFLIFRASVEGGGFNERCLVAASFRDVGERTVVNALFNNQAYHSPATALAVVDNLLFKLLCGPHASIVVSNFPQPRSALQAAKDQFNEGRKGFDIALNLLFAMAFLASTFSILAVSERAVQAKHVQFVSGVHVASFWLSALLWDLISFLIPSLLLLVVFKAFDVRAFTRDGHMADTLLLLLLYGWAIIPLMYLMNFFFLGAATAYTRLTIFNILSGIATFLMVTIMRIPAVKLEELSKTLDHVFLVLPNHCLGMAVSSFYENYETRRYCTSSEVAAHYCKKYNIQYQENFYAWSAPGVGRFVASMAASGCAYLILLFLIETNLLQRLRGILCALRRRRTLTELYTRMPVLPEDQDVADERTRILAPSPDSLLHTPLIIKELSKVYEQRVPLLAVDRLSLAVQKGECFGLLGFNGAGKTTTFKMLTGEESLTSGDAFVGGHRISSDVGKVRQRIGYCPQFDALLDHMTGREMLVMYARLRGIPERHIGACVENTLRGLLLEPHANKLVRTYSGGNKRKLSTGIALIGEPAVIFLDEPSTGMDPVARRLLWDTVARARESGKAIIITSHSMEECEALCTRLAIMVQGQFKCLGSPQHLKSKFGSGYSLRAKVQSEGQQEALEEFKAFVDLTFPGSVLEDEHQGMVHYHLPGRDLSWAKVFGILEKAKEKYGVDDYSVSQISLEQVFLSFAHLQPPTAEEGR
partner: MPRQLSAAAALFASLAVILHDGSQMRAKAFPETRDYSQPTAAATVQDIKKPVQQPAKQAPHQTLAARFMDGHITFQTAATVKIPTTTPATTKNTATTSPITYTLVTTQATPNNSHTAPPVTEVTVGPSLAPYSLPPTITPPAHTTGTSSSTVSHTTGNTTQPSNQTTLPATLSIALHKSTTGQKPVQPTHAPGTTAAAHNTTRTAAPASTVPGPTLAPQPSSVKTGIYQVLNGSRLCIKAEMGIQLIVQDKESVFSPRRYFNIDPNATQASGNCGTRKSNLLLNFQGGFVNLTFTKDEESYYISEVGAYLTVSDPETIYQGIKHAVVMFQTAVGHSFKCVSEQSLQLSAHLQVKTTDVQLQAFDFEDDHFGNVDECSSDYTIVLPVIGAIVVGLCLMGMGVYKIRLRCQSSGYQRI
B2: Phospholipid-transporting ATPase ABCA3 (Homo sapiens), Q99758 (parent)
chain: B1 chain
partner: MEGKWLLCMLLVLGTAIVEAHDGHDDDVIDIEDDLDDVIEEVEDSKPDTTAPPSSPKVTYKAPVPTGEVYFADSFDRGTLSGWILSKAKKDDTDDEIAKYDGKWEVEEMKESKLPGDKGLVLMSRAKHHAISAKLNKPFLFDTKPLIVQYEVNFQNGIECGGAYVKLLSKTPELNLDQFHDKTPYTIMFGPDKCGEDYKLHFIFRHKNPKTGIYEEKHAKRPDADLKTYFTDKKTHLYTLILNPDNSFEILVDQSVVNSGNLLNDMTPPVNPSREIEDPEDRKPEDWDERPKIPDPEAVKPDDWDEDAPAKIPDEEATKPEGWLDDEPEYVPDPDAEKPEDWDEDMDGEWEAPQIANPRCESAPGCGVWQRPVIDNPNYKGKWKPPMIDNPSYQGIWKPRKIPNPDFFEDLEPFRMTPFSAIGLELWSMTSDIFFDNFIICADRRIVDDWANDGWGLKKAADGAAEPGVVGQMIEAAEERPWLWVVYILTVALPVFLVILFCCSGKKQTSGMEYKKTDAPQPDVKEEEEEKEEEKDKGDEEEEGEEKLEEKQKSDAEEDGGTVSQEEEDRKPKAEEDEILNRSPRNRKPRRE

Variants of: B1
Details: with lamp3_human LAMP3, Q9UQV4

Variant | effect of a mutation on the interaction
Q215K | disrupting interaction

Variants of: B2
Details: with calx_human CANX

Variant | effect of a mutation on the interaction
Q215K | increasing interaction
